The source of these data is the RNAGym collection of RNA variant scans (doi:10.7554/elife.80360).

To fix the notation:
B1: HDV Ribozyme (parent)
chain: GGCCGGCAUGGUCCCAGCCUCCUCGCUGGCGCCGGCUGGGCAACAUUCCGAGGGGACCGUCCCCUCGGUAAUGGCGAAUGGGACCCA

The variants in this series derive from B1. Nature of the series: self-cleavage, relative activity (ratio to wild type); higher = more cleavage; co-transcriptional.
With GGCCGGCAUAGUCCCAGCCUCCUCGCUGGCGCCGGCUGGGCAACAUUCCGAGGGGACCGUCCCCUCGGUAAUGGAGAAUGGGACCCA [G10A C75A], the self-cleavage is 0.0898.

In the case of GGCCGGCAUGGUCCGAGCCUCCUCGCUGGCGCCGGCUGGGCAACAUUCCGAGGGGACCGUCCCCUCGGUAAUGGCGAAUGGGACUCA [C15G C85U], the self-cleavage was found to be 0.453.

In the case of GGCCGGCAUGGUCCCAGCCUCCGCGCUGGCGCCGGCUGGGCAACAUUCCGAGGGGACCGUCCACUCGGUAAUGGCGAAUGGGACCCA [U23G C63A], the self-cleavage worked out at 0.623.

In the case of GGCCGGCAUGGUCCCAGCCUCCUCGCUGGCGCCGGCUGGGCAACAUUCCGAGAGGACCGUCCCCUCGGUACUGGCGAAUGGGACCCA [G53A A71C], the self-cleavage came to 0.623.

On to GGCCGGCAUGGUCCCAGCCUCCUCGCAGGCGCCGGCUGGGCAAGAUUCCGAGGGGACCGUCCCCUCGGUAAUGGCGAAUGGGACCCA [U27A C44G], for which the self-cleavage was found to be 0.289.

Consider GGCCGGCAUGGUCCCAGCCUCUUCGCUGGCGCCGGCUGGGCAACAUUCCGAGGGGACCGUCCCCUCGGUAAUGGCGACUGGGACCCA [C22U A78C], for which the self-cleavage was 0.126.

For GGCCGGCAUGGUCCCAGCCUCCUCGCUGGCGCCGGCUGGGCAACAUGCCGAGGGGACCGUCCCCUCGGUAAUGGCGCAUGGGACCCA [U47G A77C], the self-cleavage worked out at 0.35.

For the variant GGCCGGCAUGGUCCCAGCCUCCUCGCUGGUGCCGGCUGGGCAUCAUUCCGAGGGGACCGUCCCCUCGGUAAUGGCGAAUGGGACCCA [C30U A43U], the self-cleavage worked out at 0.0652.

Consider GGCCGGCAUGGUCCCAGCCUCCUCGCUGGCGCCGGUUGGGCAACAUUCCGAGGGGACCGUCCCCUCGGUAAUGCCGAAUGGGACCCA [C36U G74C], for which the self-cleavage was 0.253.

For GGCCGGCAUGGUCCCAGCCUCCUCGAUGGCGCCGGCUGGGCAACGUUCCGAGGGGACCGUCCCCUCGGUAAUGGCGAAUGGGACCCA [C26A A45G], the self-cleavage amounted to 0.978.

GGCCGGCAUGGUCCCAGCCUCCUCGCUGGCGCCGGCUGGGGAACAUUCCGAGGGGACCGUCCCCUCGGUAAUGGCGAAUGUGACCCA [C41G G81U]: the self-cleavage came to 0.166.

For GGCCGGCAUGGUCCCAGCCUCCUCGCUGGCGCCGUCUGAGCAACAUUCCGAGGGGACCGUCCCCUCGGUAAUGGCGAAUGGGACCCA [G35U G39A], the self-cleavage was found to be 0.0906.

Take GGCCGGCAUGGUCCCAGCCUCCUCGCUCGCGCCGGCUGGGCAACAUUCCGAGGGGACCGUCCCCUCGGUAAUGGCGCAUGGGACCCA [G28C A77C]: the self-cleavage worked out at 0.229.

With GGCCGGCAUGGUCCCAGCCUCCUCGCUGGCGCAGGCUGGGCAACAUUCCGAGGGGACCGUCCCCUCGGUAAUGGCGAAUGGGCCCCA [C33A A83C], the self-cleavage worked out at 0.0449.

For the variant GGCCGGCAUGGUCCCAGCCUCCUCGCUGGCGCCGGAUGGGCAACACUCCGAGGGGACCGUCCCCUCGGUAAUGGCGAAUGGGACCCA [C36A U46C], the self-cleavage amounted to 0.166.

For GGCCGGCAUGGUCCCAGCCUCCUCGCUGGCGCCGGCUGGGCAACAUUCCGAGGGGACCGUCCCCUGGGUAAUGGCGAAUGGGACCCA [C66G], the self-cleavage came to 0.973.

For GGCAGGCAUGGUCCCAGCCUCCUCGCUGGCGCCGGCUGGGCAACAUUCCGAGGGGACCGUCCCCUCGGUAAUGGUGAAUGGGACCCA [C4A C75U], the self-cleavage amounted to 0.102.

Regarding GGCCGGCAUGGUCCCAGCCUCAUCGCUGGCGCCGGCUGGGCAACAUUCCGAGGGGACCGUCCACUCGGUAAUGGCGAAUGGGACCCA [C22A C63A], the self-cleavage amounted to 0.166.

GGCCGGCAUGGUCCCAGCCUCCUCGCCGGCGCCGGCUGGGCAACAUUCCGAGGGGACCGUCCCCUCGGGAAUGGCGAAUGGGACCCA [U27C U69G]: the self-cleavage was found to be 0.712.

Take GGCCGGCAUGGUCCCAGCCUCCUCGCUGGCGCCGGCAGGGCAACAUUCCGAGGGGACCGUCCCCUCGGUAAUGCCGAAUGGGACCCA [U37A G74C]: the self-cleavage worked out at 0.212.

For UGCCGGCAUGGUUCCAGCCUCCUCGCUGGCGCCGGCUGGGCAACAUUCCGAGGGGACCGUCCCCUCGGUAAUGGCGAAUGGGACCCA [G1U C13U], the self-cleavage came out at 0.326.

Turning to GGCCGGCAUGGACCCAGCCUCCUCGCUGGCGCCGGCUGGGCAUCAUUCCGAGGGGACCGUCCCCUCGGUAAUGGCGAAUGGGACCCA [U12A A43U], the self-cleavage turned out to be 0.147.

With GGCCGGCAUGGUCCCAGCCUCCUCGCUAGCGCCGGCUGGGCAACAUUCCGAGGGGACCGUCCCCUCGAUAAUGGCGAAUGGGACCCA [G28A G68A], the self-cleavage stood at 0.124.

As to GGCCGGCAUGGUCCCAGCCUUCUCGCUGGCGCCGGCUGGGCAACAUUCCGAGGGGACCGUCCCCUCGCUAAUGGCGAAUGGGACCCA [C21U G68C], the self-cleavage worked out at 0.0875.

Consider GGCCGGCAUGGUCCCAGCCUCCUCGCUGGCGCCGGCUGGGCAACAUUCCGAGGGGACCGCCCCCUCGGUAAUGGCGAAUGGGACCCA [U60C], for which the self-cleavage was 1.01.

As to GGCCGGCAUGGUCCCAGCCUACUCGCUGGCGCCGGCUGGGCAACAUUCCGAGGGGACCGUCCCCUCGGUAAUGGCGAAUGGGAUCCA [C21A C84U], the self-cleavage is 0.0489.

Regarding GGCCGGCAUGGUCCCAGCCUCCUCGCUGGCGUCGGCUGGGCAACAUUCCGAGGGGACCGUCCCCUCGGUAAUGGCGAAUGGGACCCA [C32U], the self-cleavage was found to be 0.881.

As for GGCCGGCAUGGUCCCAGCCUUCUCGCUGGCGCCGGCUGGGCAACAUUCCGAGGGGACCGUCCCCUCGGUAUUGGCGAAUGGGACCCA [C21U A71U], the self-cleavage is 0.572.

Turning to GGCCGGCAUGGUCCCAGCCUCCUCGCUGGCGCCGGCUGGGCAACAUUCAGAGGGGACCGUCCCCUUGGUAAUGGCGAAUGGGACCCA [C49A C66U], the self-cleavage stood at 0.979.

Regarding GGCCGGCAAGGUCCCAGCCUCCUCGCUGGCGCCAGCUGGGCAACAUUCCGAGGGGACCGUCCCCUCGGUAAUGGCGAAUGGGACCCA [U9A G34A], the self-cleavage was found to be 0.232.

In the case of GGCCGGCUUGGUCCCAGCCUCCUCGCUGGCUCCGGCUGGGCAACAUUCCGAGGGGACCGUCCCCUCGGUAAUGGCGAAUGGGACCCA [A8U G31U], the self-cleavage stood at 0.0475.

CGCCGGCAUGGUCCCAGCCUCCUCGCUGGCGCCGGCUGGGCAACAUUCCGAGGGGACCGUCCCCUCGGUGAUGGCGAAUGGGACCCA [G1C A70G]: the self-cleavage is 0.453.
